One series has as its system A5-9 cells. As to the kind of experiment: Puromycin sensitivity of the parent strain. The series is classed as cell-based, mouse. An excerpt: (§1) The DNA that controls the production of Aβ is investigated as follows. First, the DNA library is transfected to the cell line where the two recombinant gene constructs described above are introduced (hereinafter referred to as the parent strain). Thereafter, for example, when a drug resistant gene is used as the selection marker, a cell bearing the DNA to enhance the concentration of the corresponding drug and become resistant in the presence of the drug even at a high concentration is selected. […]
(§2) The A5-9 cells or A5-9-PS1 cells described in EXAMPLE 4, to which the human hippocampus cDNA library was transfected through the infection with retrovirus, were cultured in the presence of puromycin of a high concentration (A5-9 cells, 25 μg/ml; A5-9-PS1 cells, 9 μg/ml). […] The concentrations of puromycin used were determined based on the respective minimum puromycin concentrations of 20 μg/ml and 5 μg/ml, at which the A5-9 cells and A5-9-PS1 cells as the parent strain were extinct. […] That is, Aβ was detected as follows. The Aβ secreted in a medium by incubation for 3 days (initial cell concentration of 2×10^5 cells/ml, medium of 3 ml) was immunoprecipitated by anti-Aβ monoclonal antibody 6E10 and the deposits were detected by high sensitive western blotting using anti-Aβ antibody. […]

For a further series, the system named is A5-9-PS1 cells. As to the kind of experiment: Puromycin sensitivity of the parent strain. The format is cell-based, mouse.
Description: as §1, §2

Series [1] relates to HEK293 cells where APP and PS1 were overexpressed. As to the kind of experiment: Aβ secreted into the medium by HEK293 cells transfected with cDNA in pcDNA3, assayed by ELISA. The format is cell-based. To be noted: for Fold increase in Aβ42 versus vector control: rate of increase compared to vector-alone control. From the text:
From the clones selected in EXAMPLE 5 above to increase the production of Aβ, human hippocampus-derived cDNA was amplified by PCR using virus vector pMX sites as primers (which were identified to be sense strand primer, SEQ ID NO: 16; […] and antisense strand primer, SEQ ID NO: 17; […]). The cDNA obtained was ligated with vector pcDNA3 (Invitrogen, Inc.), which was transfected to 4×10^5 cells of HEK293 cells (Tomita S., et al., J. Biol. Chem. 273: 19304-19310, 1998; Tomita S., et al., J. Biol. Chem. 275: 13056-13060, 2000) where APP and PS1 were overexpressed. One day after, the medium was changed to a new medium followed by incubation for 24 hours. The amount of Aβ selected in the medium was assayed by ELISA (Asami-Odaka, A. et al., 34:10272, 1995). It was found so far that 3 kinds of human hippocampus-derived cDNAs increased the amount of Aβ produced (TABLE 2). One of them was identified to be identical with human cDNA (accession No. AAH06223) registered in Genbank. In the following procedures of the present invention, this cDNA was named gene A (SEQ ID NO: 4) and the protein encoding the cDNA was named Protein A (SEQ ID NO: 1). […] The one found to be a gene to control the production of Aβ was a protein, Herp (Kokame K. et al., J. Biol. Chem. 275: 3286, 2000; accession no. AB034989) (cDNA: SEQ ID NO: 5, protein: SEQ ID NO: 2), which was localized in the endoplasmic reticulum and its expression was induced by endoplasmic reticulum stress but its function was unknown. Further the other one found to be a gene to control the production of Aβ was cDNA (cDNA: SEQ ID NO: 6, protein: SEQ ID NO: 3) containing the 1-389 internal sequence from the N terminus of 5-lipoxygenase (accession no. XM 005818).

[2] abbreviates: Aβ in medium after 24 hours incubation, mean of 2 samples, vector control value in parenthesis.

Regarding `COc1ccc(C[C@H](N)C(=O)N[C@H]2[C@@H](O)[C@H](n3cnc4c(N(C)C)ncnc43)O[C@@H]2CO)cc1` [puromycin], the “minimum puromycin concentration at which the cells were extinct” value with A5-9 cells came to 20 µg/mL; in the series with A5-9-PS1 cells it was 5 µg/mL.

B1: Protein A: human cDNA (Genbank AAH06223, SEQ ID NO: 4) encoding Protein A (SEQ ID NO: 1), function unknown (nucleic acid)
DNA: ATGTCGACGGCGGCGGTTCCGGAGCTGAAGCAGATCAGCCGGGTGGAGGCGATGCGCCTAGGGCCGGGCTGGAGCCACTCGTGCCACGCCATGCTGTACGCCGCCAACCCTGGGCAGCTCTTCGGCCGCATCCCCATGCGCTTCTCGGTGCTGATGCAGATGCGTTTCGACGGGCTGCTGGGCTTCCCCGGGGGCTTCGTGGACCGGCGCTTCTGGTCGCTGGAGGACGGCCTGAACCGGGTGCTGGGCCTGGGCCTGGGCTGCCTGCGCCTCACCGAGGCCGACTACCTGAGCTCGCACCTGACCGAGGGCCCACACCGCGTCGTGGCGCACCTGTACGCGCGGCAGCTGACGCTGGAGCAGCTGCACGCCGTGGAGATCAGCGCGGTGCACTCGCGCGACCACGGCCTGGAGGTGCTGGGCCTCGTGCGGGTCCCGCTGTACACCCAGAAGGACCGAGTCGGAGGCTTCCCCAACTTCCTGAGCAACGCCTTCGTGAGCACGGCTAAGTGCCAGCTCCTCTTTGCCCTCAAGGTGCTCAACATGATGCCCGAGGAGAAGCTGGTTGAGGCCCTGGCTGCAGCCACCGAGAAGCAGAAGAAGGCCCTGGAGAAGTTGCTCCCGGCCTCCTCT
modifications: Human
On to B1, for which, in series [1] (setting [2]), the “Aβ40 Concentration [pM]” value was 378 ± 10 (232 ± 34) pM and the “Aβ42 Concentration [pM]” value is on record as 88 ± 22 (45 ± 2) pM. Also, the “Fold increase in Aβ42 versus vector control” value in series [1] (column beside the Aβ40 concentration) turned out to be 1.6. The “Fold increase in Aβ42 versus vector control” value in series [1] (column beside the Aβ42 concentration) is given as 2.0.

The values are drawn from patent publication US20040234990A1, “Method of screening alzheimer's disease-associated gene” (priority 2001, published 2004).
